Test results from US20150056210A1 (ROTTAPHARM BIOTECH S R L, published 2015).

What was measured:
Spacer-GST [1] = biological target: T1, Spacer-GST (human); assay: ELISA, Spacer-GST coated at 10 µg/mL, scFv in solution, anti-V5 detection
T1 construct: also called recombinant Spacer-ADAMTS-5-GST protein
Method: FIG. 3. ELISA reactivity of isolated anti-Sp_ADAMTS-5 scFvs with Spacer-GST and GST negative control. Spacer-GST and GST antigens were coated at 10 μg/mL. […] The mean absorbance at 450 nm of the experiments performed in duplicate wells is shown with SD indicated by the bars.
Nunc Maxi-Sorp Immunoplate was coated with […] Sp_ADAMTS-5-GST and GST at 10 μg/mL in coating buffer (100 mM Na₂CO₃ pH 9.6). Plate was incubated overnight at 4° C. next day, the unbound antigens were discarded and plate was washed 3× with PBS. Non-specific binding was blocked by adding […] of 3% MPBS (3% fat free milk in PBS). Plate was incubated for 1 h at RT. Plate was washed 3×TPBS (0.1% Tween20 in PBS) and 3×PBS. 100 μL of serial dilution of anti-Sp_ADAMTS-5scFv (0.5-50 μg/mL) in 3% MPBS was added to appropriate wells. Then plate was incubated for 2 h at RT. After washing with 3×TPBS and 3×PBS, 100 μL of anti-V5 antibody (Invitrogen) diluted 1:5000 in 3% MPBS was added to each well. Plate was incubated for 1 h and 30 min at RT. After washing with 3×TPBS and 3×PBS 100 μL of anti-mouse HRP (DAKO) diluted 1:2000 in 3% MPBS was added to each well. Plate was incubated for 1 h at RT. After washing with 3×TPBS and 3×PBS 80 μL of TMB (Sigma) was added. Plate was incubated in dark chamber until samples reach the desired signal. 80 μL of stopping solution (500 mM H₂SO₄) was added to each well before reading. Data were collected measuring OD(450 nm) by LD 400 Luminescence Detector (Beckman Coulter).

Spacer-GST [2] = biological target: T1, Spacer-GST; assay: sandwich ELISA with Spacer-GST, data not shown
Spacer-GST [3] = biological target: T1, Spacer-GST; assay: SPR (Biacore X-100), CRB0017_IgG4 immobilised on CM5 chip, Spacer-GST in solution, KD1
Spacer-GST [4] = biological target: T1, Spacer-GST; assay: SPR (Biacore), Spacer-GST immobilised, CRB0017_IgG4 in solution, bivalent binding model, KD2, data not shown

T1 sequence (chain, as listed by the source limits assumed): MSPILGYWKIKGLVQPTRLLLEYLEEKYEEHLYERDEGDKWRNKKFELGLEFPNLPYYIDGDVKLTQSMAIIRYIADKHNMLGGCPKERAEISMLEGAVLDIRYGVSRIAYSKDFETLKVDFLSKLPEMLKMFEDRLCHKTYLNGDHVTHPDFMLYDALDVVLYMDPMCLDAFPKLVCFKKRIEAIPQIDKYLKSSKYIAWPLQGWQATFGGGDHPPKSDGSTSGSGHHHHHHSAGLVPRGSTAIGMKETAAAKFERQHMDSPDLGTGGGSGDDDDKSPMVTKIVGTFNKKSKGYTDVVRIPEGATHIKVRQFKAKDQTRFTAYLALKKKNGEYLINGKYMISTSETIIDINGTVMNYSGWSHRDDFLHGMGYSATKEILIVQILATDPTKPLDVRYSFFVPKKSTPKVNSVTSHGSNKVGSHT

B1: CRB0092 scFv (scFv)
scFv: QSVVTQPPSVSGAPGQRVTISCTGSSSNIGAGYDVHWYQQLPGTAPKLLIYGNDNRPSGVPDRFSGSKSGTSASLAITGLQAEDEADYYCQSYDNSLSGYAVFGGGTQLTVLSGGSTSGSGKPGSGEGSSGTQVQLVESGGGLVQPGGSLRLSCAASGFRFSSHDMHWVRQVPGKGLEWVSRIGTVGDTYYADSVKGRFTISRDNSKNTLFLQMNSLGAEDTAVYYCARDGTRYCSRTSCHSGYYYYGMDVWGQGTTVTVSS
notes: VP16 fusion in the yeast selection; also called clone C21
Spacer-GST [1]
  binding result: binds

B2: CRB0019 scFv (scFv)
scFv: DIVMTQSHKFMSTSEGDRVSITCKASQDVGTAVAWYQQKPGQSPKLLIYWASTRHTGVPDRFTGSGSGTDFTLTISNVQSEDLADYICQQYCSHPYTFGAGTKLEIKRSGGSTSGSGKPGSGEGSRGTQVQLQQSGAEPVKPGASVKLSCTASGFNIKDTYMHWVKQRPEQGLEWIGRIDPAHGRTKYDPKFQGKATITADTSSNTAYLQLSSLSSEDTAVYYCAFYSYAIDYWGQGTSVTVSS
notes: VP16 fusion in the yeast selection; also called clone 14
Spacer-GST [1]
  binding result: binds

B3: CRB0017 scFv (scFv)
scFv: DIVITQDELSNPVTSGESVSISCRSSKSLLYKDGKTYLYWFLQRPGQSPQLPIYLMSTRASGVSDRFSGSGSGTDFTLEISRVKAEDVGVYYCQQLVEYPYTFGGGTKLEIKRSGGSTRGSGKPGSGEGSSGTQVQLQQSGAELAKPGASVKMSCKASGYTFTSYWMHWVKQRPGQGLEWIGYINPSTGYTEYNQKFKDKATLTADKSSSTAYMQLGSLTSEDSAVYYCARGGYDDLGYWGQGTTLTVSS
notes: detected in ELISA with an anti-V5 antibody, tag not described; also called clone M6
Spacer-GST [1]
  binding result: binds

B4: CRB0018 scFv (scFv)
scFv: DIVMTQSPASLAVSQGQRATISCRASESVDSYGNSFMHWYQQKPGQPPKLPIYLASNLESGVPARFSGSGSRTDFTLTIDPVEADDAATYYCQQNNEELTFGAGTKLELKRSGGSTSGSGKPGSSEGSSGTEVKLLESGGGLVQPGGSLKLSCTTSGFDFSRYWMSWVRQAPGKGLEWIGEINPDSSTINYTPSLKDKFIISRDNAKNTLYLQMSKVRSEDTALYYCARRSYWYFDVWGAGTSVTVSS
notes: VP16 fusion in the yeast selection; also called clone 7A (mSPLINT)
Spacer-GST [1]
  binding result: binds

B5: monoclonal antibody CRB0102 (antibody, V domains shown)
VH: EVQLVESGSDVKKPGASVRVSCKVSGYRLTEYPIHWVRQAPGKGLEYMGGFDLENGVTKAAPRFRGRFTMTEDTSTDSVYMELKSLTSEDTAVYYCVKGPGYGALVTSFTSWGLGTLVTVSS
VL: ETTLTQSPAFMSATPGDKIYISCKASQDIDDDMNWYQQKPGEAAIFIIQEATTLVPGIPPRFSGSGYGTDFTLTINNMESEDAAYYFCPQQDNVPLTFGGGTKVDIK
notes: also called CRB0102 IgG4
Spacer-GST [2]
  binding result: binds

B6: CRB0123 scFv (scFv)
scFv: QVQLQESGGGVVQPGRSLRLSCAASGFTFSGYGMNWVRQAPGTGLEWVATISFDGTDKYYADSVKGRFTISRDNAENTLYLQMNSLRAEDMAVYYCARDWSYAMDVWGQGTMVTVSSSGGSTSGSGKPGSGEGSSGTDIQMTQSPSSVSASVGDRVTITCRPSQGIGKYSAWYQQKPGKAPELPIYLASTLQSGVPSRFSDSGSGTEFTLTISSLQPEDFATYYCLQRNTYPWTFGQGTKVEIK
notes: VP16 fusion in the yeast selection; also called clone S50
Spacer-GST [1]
  binding result: binds

B7: CRB0094 scFv (scFv)
scFv: QSVLTQPPSASGSPGQSVTISCTGTSSDVGGYNYVSWYQQHPGKAPKLLIYDVSNRPSGVSSRFSGSKSGNSASLTISGLQAEDEADYYCSSYTRRSTLEFGGGTKLTVLSGGSTSGSGKPGSGEGSSGTQVQLQQWGAGLLKPSGTLSLTCAVYGGSFSGYYWSWIRQPPGKGLEWIGEINHSGSTNYNPSLKSRVTISVDTSKNQFSLKLSSVTAADTAVYYCARTIWSTRHDFWSGYYSSNWFDPWGQGTLVTVSS
notes: VP16 fusion in the yeast selection; also called clone 48B
Spacer-GST [1]
  binding result: binds

B8: CRB0123_IgG4 (antibody, V domains shown)
VH: QVQLQESGGGVVQPGRSLRLSCAASGFTFSGYGMNWVRQAPGTGLEWVATISFDGTDKYYADSVKGRFTISRDNAENTLYLQMNSLRAEDMAVYYCARDWSYAMDVWGQGTMVTVSS
VL: DIQMTQSPSSVSASVGDRVTITCRPSQGIGKYSAWYQQKPGKAPELPIYLASTLQSGVPSRFSDSGSGTEFTLTISSLQPEDFATYYCLQRNTYPWTFGQGTKVEIK
notes: also called mAb CRB0123; monoclonal antibody CRB0123
Spacer-GST [2]
  binding result: binds

B9: CRB0124 scFv (scFv)
scFv: QVQLVQSGSDVKKPGASVRVSCKVSGYRLTEYPIHWVRQAPGKGLEYMGGFDLENGVTKAAPRFRGRFTMTEDTSTDSVYMELKSLTSEDTAVYYCVKGPGYGALVTSFTSWGLGTTVTVSSSGGSTSGSGKPGSGEGSSGTSYVLTQPPSVSVSPGQTASITCSGDKLEDKYACWYQQKPGQSPVLVIYHDYKRPSGIPERFSGSNSGNTATLTISRVEGGDEADYYCQVWDSGSDDQVFGGGTKLTVL
notes: VP16 fusion in the yeast selection; also called clone S53a
Spacer-GST [1]
  binding result: binds

B10: CRB0102 scFv (scFv)
scFv: EVQLVESGSDVKKPGASVRVSCKVSGYRLTEYPIHWVRQAPGKGLEYMGGFDLENGVTKAAPRFRGRFTMTEDTSTDSVYMELKSLTSEDTAVYYCVKGPGYGALVTSFTSWGLGTLVTVSSSGGSTSGSGKPGSGEGSSGTETTLTQSPAFMSATPGDKIYISCKASQDIDDDMNWYQQKPGEAAIFIIQEATTLVPGIPPRFSGSGYGTDFTLTINNMESEDAAYYFCPQQDNVPLTFGGGTKVDIK
notes: VP16 fusion in the yeast selection; also called clone 15A
Spacer-GST [1]
  binding result: binds

B11: CRB0122 scFv (scFv)
scFv: QVQLQESGGGLVRPGGSLRLSCAASGFTFSSYAMTWVRQAPGKGLEWVSAISGSGDSTYYADSVKGRFTISRDNSKNTLYLQMDSLRVEDTAVYYCARDRDLLHKDGFDIWGQGTMVTVSSSGGSTSGSGKPGSGEGSSGTQSVLTQPPSASASLGASVTLTCTLSSGYSNYKVDWYQQTPGKGPRFVMRVGTGGTVGSKGDGIPDRFSVLGSGLNRYLIIKNIQEEDETDYHCGADHGSGSNFVYVFGSGTKVTVL
notes: VP16 fusion in the yeast selection; also called clone S39
Spacer-GST [1]
  binding result: binds

B12: CRB0091 scFv (scFv)
scFv: DIVMTQSPSSLSASVGDRVTITCRASQAIGNDLAWYQQRPGKAPKRLIYGASTLSSGVPSRFSGSGSGTEFTLTISSLQPDDFATYYCQQYNNFPYTFGLGTKVEIKSGGSTSGSGKPGSGEGSSGTQVQLQQWGAGLLKPSETLSLTCAVHGGSFSGNFWSWVRQHPGKGLEWIGEVNHRGSATYNPSLKSRVTMSVDTSKNQFSLQLSSVTAADTAVYYCARKLPRRRAEDRPSSLRPFDYWGQGTLVTVSS
notes: VP16 fusion in the yeast selection; also called clone 7A (huSPLINT_09)
Spacer-GST [1]
  binding result: binds

B13: CRB0017_IgG4 (antibody, V domains shown)
VH: QVQLQQSGAELAKPGASVKMSCKASGYTFTSYWMHWVKQRPGQGLEWIGYINPSTGYTEYNQKFKDKATLTADKSSSTAYMQLGSLTSEDSAVYYCARGGYDDLGYWGQGTTLTVSS
VL: DIVITQDELSNPVTSGESVSISCRSSKSLLYKDGKTYLYWFLQRPGQSPQLPIYLMSTRASGVSDRFSGSGSGTDFTLEISRVKAEDVGVYYCQQLVEYPYTFGGGTKLEIK
notes: Chimeric IgG: murine variable domains on human constant domains (Fc from human IgG4, kappa light chain), made in CHO-S cells; also called mAb CRB0017; CRB017 IgG4
Spacer-GST [3]
  Kd: ~2 nM
Spacer-GST [4]
  Kd: 7 nM
